First the molecules themselves.
B1: anti-IL-6 Fab, heavy chain A49S (Fab, V domains shown)
VH: EVQLVESGGGLVQPGGSLRLSCAASGFTFSPFAMSWVRQAPGKGLEWVSKISPGGSWTYYSDTVTGRFTFSLDTSKSTAYLQMNSLRAEDTAVYYCARQLWGYYALDIWGQGTLVTVSS
VL: DIQLTQSPSSLSASVGDRVTITCSASISVSYMYWYQQKPGKAPKLLIYDMSNLASGVPSRFSGSGSGTDFTLTISSLQPEDFATYYCMQWSGYPYTFGQGTKVEIK
notes: see m39
B2: anti-IL-6 Fab, heavy chain G26S (Fab, V domains shown)
VH: EVQLVESGGGLVQPGGSLRLSCAASSFTFSPFAMSWVRQAPGKGLEWVAKISPGGSWTYYSDTVTGRFTFSLDTSKSTAYLQMNSLRAEDTAVYYCARQLWGYYALDIWGQGTLVTVSS
VL: DIQLTQSPSSLSASVGDRVTITCSASISVSYMYWYQQKPGKAPKLLIYDMSNLASGVPSRFSGSGSGTDFTLTISSLQPEDFATYYCMQWSGYPYTFGQGTKVEIK
notes: see m39
B3: anti-IL-6 Fab, heavy chain F27S (Fab, V domains shown)
VH: EVQLVESGGGLVQPGGSLRLSCAASGSTFSPFAMSWVRQAPGKGLEWVAKISPGGSWTYYSDTVTGRFTFSLDTSKSTAYLQMNSLRAEDTAVYYCARQLWGYYALDIWGQGTLVTVSS
VL: DIQLTQSPSSLSASVGDRVTITCSASISVSYMYWYQQKPGKAPKLLIYDMSNLASGVPSRFSGSGSGTDFTLTISSLQPEDFATYYCMQWSGYPYTFGQGTKVEIK
notes: see m39
B4: anti-IL-6 Fab, heavy chain A49T (Fab, V domains shown)
VH: EVQLVESGGGLVQPGGSLRLSCAASGFTFSPFAMSWVRQAPGKGLEWVTKISPGGSWTYYSDTVTGRFTFSLDTSKSTAYLQMNSLRAEDTAVYYCARQLWGYYALDIWGQGTLVTVSS
VL: DIQLTQSPSSLSASVGDRVTITCSASISVSYMYWYQQKPGKAPKLLIYDMSNLASGVPSRFSGSGSGTDFTLTISSLQPEDFATYYCMQWSGYPYTFGQGTKVEIK
notes: see m39
B5: anti-IL-6 Fab, heavy chain F27V (Fab, V domains shown)
VH: EVQLVESGGGLVQPGGSLRLSCAASGVTFSPFAMSWVRQAPGKGLEWVAKISPGGSWTYYSDTVTGRFTFSLDTSKSTAYLQMNSLRAEDTAVYYCARQLWGYYALDIWGQGTLVTVSS
VL: DIQLTQSPSSLSASVGDRVTITCSASISVSYMYWYQQKPGKAPKLLIYDMSNLASGVPSRFSGSGSGTDFTLTISSLQPEDFATYYCMQWSGYPYTFGQGTKVEIK
notes: see m39
B6: anti-IL-6 Fab, heavy chain G66D (Fab, V domains shown)
VH: EVQLVESGGGLVQPGGSLRLSCAASGFTFSPFAMSWVRQAPGKGLEWVAKISPGGSWTYYSDTVTDRFTFSLDTSKSTAYLQMNSLRAEDTAVYYCARQLWGYYALDIWGQGTLVTVSS
VL: DIQLTQSPSSLSASVGDRVTITCSASISVSYMYWYQQKPGKAPKLLIYDMSNLASGVPSRFSGSGSGTDFTLTISSLQPEDFATYYCMQWSGYPYTFGQGTKVEIK
notes: see m39
B7: anti-IL-6 Fab, heavy chain F27R (Fab, V domains shown)
VH: EVQLVESGGGLVQPGGSLRLSCAASGRTFSPFAMSWVRQAPGKGLEWVAKISPGGSWTYYSDTVTGRFTFSLDTSKSTAYLQMNSLRAEDTAVYYCARQLWGYYALDIWGQGTLVTVSS
VL: DIQLTQSPSSLSASVGDRVTITCSASISVSYMYWYQQKPGKAPKLLIYDMSNLASGVPSRFSGSGSGTDFTLTISSLQPEDFATYYCMQWSGYPYTFGQGTKVEIK
notes: see m39
B8: anti-IL-6 Fab, heavy chain F27G (Fab, V domains shown)
VH: EVQLVESGGGLVQPGGSLRLSCAASGGTFSPFAMSWVRQAPGKGLEWVAKISPGGSWTYYSDTVTGRFTFSLDTSKSTAYLQMNSLRAEDTAVYYCARQLWGYYALDIWGQGTLVTVSS
VL: DIQLTQSPSSLSASVGDRVTITCSASISVSYMYWYQQKPGKAPKLLIYDMSNLASGVPSRFSGSGSGTDFTLTISSLQPEDFATYYCMQWSGYPYTFGQGTKVEIK
notes: see m39
B9: anti-IL-6 Fab, heavy chain R98G (Fab, V domains shown)
VH: EVQLVESGGGLVQPGGSLRLSCAASGFTFSPFAMSWVRQAPGKGLEWVAKISPGGSWTYYSDTVTGRFTFSLDTSKSTAYLQMNSLRAEDTAVYYCAGQLWGYYALDIWGQGTLVTVSS
VL: DIQLTQSPSSLSASVGDRVTITCSASISVSYMYWYQQKPGKAPKLLIYDMSNLASGVPSRFSGSGSGTDFTLTISSLQPEDFATYYCMQWSGYPYTFGQGTKVEIK
notes: see m39
B10: anti-IL-6 Fab, heavy chain F29H (Fab, V domains shown)
VH: EVQLVESGGGLVQPGGSLRLSCAASGFTHSPFAMSWVRQAPGKGLEWVAKISPGGSWTYYSDTVTGRFTFSLDTSKSTAYLQMNSLRAEDTAVYYCARQLWGYYALDIWGQGTLVTVSS
VL: DIQLTQSPSSLSASVGDRVTITCSASISVSYMYWYQQKPGKAPKLLIYDMSNLASGVPSRFSGSGSGTDFTLTISSLQPEDFATYYCMQWSGYPYTFGQGTKVEIK
notes: see m39
B11: anti-IL-6 Fab, heavy chain M34W (Fab, V domains shown)
VH: EVQLVESGGGLVQPGGSLRLSCAASGFTFSPFAWSWVRQAPGKGLEWVAKISPGGSWTYYSDTVTGRFTFSLDTSKSTAYLQMNSLRAEDTAVYYCARQLWGYYALDIWGQGTLVTVSS
VL: DIQLTQSPSSLSASVGDRVTITCSASISVSYMYWYQQKPGKAPKLLIYDMSNLASGVPSRFSGSGSGTDFTLTISSLQPEDFATYYCMQWSGYPYTFGQGTKVEIK
notes: see m39
B12: anti-IL-6 Fab, heavy chain I108F (Fab, V domains shown)
VH: EVQLVESGGGLVQPGGSLRLSCAASGFTFSPFAMSWVRQAPGKGLEWVAKISPGGSWTYYSDTVTGRFTFSLDTSKSTAYLQMNSLRAEDTAVYYCARQLWGYYALDFWGQGTLVTVSS
VL: DIQLTQSPSSLSASVGDRVTITCSASISVSYMYWYQQKPGKAPKLLIYDMSNLASGVPSRFSGSGSGTDFTLTISSLQPEDFATYYCMQWSGYPYTFGQGTKVEIK
notes: see m39
B13: anti-IL-6 Fab, heavy chain I51R (Fab, V domains shown)
VH: EVQLVESGGGLVQPGGSLRLSCAASGFTFSPFAMSWVRQAPGKGLEWVAKRSPGGSWTYYSDTVTGRFTFSLDTSKSTAYLQMNSLRAEDTAVYYCARQLWGYYALDIWGQGTLVTVSS
VL: DIQLTQSPSSLSASVGDRVTITCSASISVSYMYWYQQKPGKAPKLLIYDMSNLASGVPSRFSGSGSGTDFTLTISSLQPEDFATYYCMQWSGYPYTFGQGTKVEIK
notes: see m39
B14: anti-IL-6 Fab, heavy chain G26R (Fab, V domains shown)
VH: EVQLVESGGGLVQPGGSLRLSCAASRFTFSPFAMSWVRQAPGKGLEWVAKISPGGSWTYYSDTVTGRFTFSLDTSKSTAYLQMNSLRAEDTAVYYCARQLWGYYALDIWGQGTLVTVSS
VL: DIQLTQSPSSLSASVGDRVTITCSASISVSYMYWYQQKPGKAPKLLIYDMSNLASGVPSRFSGSGSGTDFTLTISSLQPEDFATYYCMQWSGYPYTFGQGTKVEIK
notes: see m39
B15: anti-IL-6 Fab, heavy chain F29Y (Fab, V domains shown)
VH: EVQLVESGGGLVQPGGSLRLSCAASGFTYSPFAMSWVRQAPGKGLEWVAKISPGGSWTYYSDTVTGRFTFSLDTSKSTAYLQMNSLRAEDTAVYYCARQLWGYYALDIWGQGTLVTVSS
VL: DIQLTQSPSSLSASVGDRVTITCSASISVSYMYWYQQKPGKAPKLLIYDMSNLASGVPSRFSGSGSGTDFTLTISSLQPEDFATYYCMQWSGYPYTFGQGTKVEIK
notes: see m39
B16: anti-IL-6 Fab, heavy chain F32V (Fab, V domains shown)
VH: EVQLVESGGGLVQPGGSLRLSCAASGFTFSPVAMSWVRQAPGKGLEWVAKISPGGSWTYYSDTVTGRFTFSLDTSKSTAYLQMNSLRAEDTAVYYCARQLWGYYALDIWGQGTLVTVSS
VL: DIQLTQSPSSLSASVGDRVTITCSASISVSYMYWYQQKPGKAPKLLIYDMSNLASGVPSRFSGSGSGTDFTLTISSLQPEDFATYYCMQWSGYPYTFGQGTKVEIK
notes: see m39
B17: anti-IL-6 Fab, heavy chain G66E (Fab, V domains shown)
VH: EVQLVESGGGLVQPGGSLRLSCAASGFTFSPFAMSWVRQAPGKGLEWVAKISPGGSWTYYSDTVTERFTFSLDTSKSTAYLQMNSLRAEDTAVYYCARQLWGYYALDIWGQGTLVTVSS
VL: DIQLTQSPSSLSASVGDRVTITCSASISVSYMYWYQQKPGKAPKLLIYDMSNLASGVPSRFSGSGSGTDFTLTISSLQPEDFATYYCMQWSGYPYTFGQGTKVEIK
notes: see m39
B18: anti-IL-6 Fab, heavy chain F32G (Fab, V domains shown)
VH: EVQLVESGGGLVQPGGSLRLSCAASGFTFSPGAMSWVRQAPGKGLEWVAKISPGGSWTYYSDTVTGRFTFSLDTSKSTAYLQMNSLRAEDTAVYYCARQLWGYYALDIWGQGTLVTVSS
VL: DIQLTQSPSSLSASVGDRVTITCSASISVSYMYWYQQKPGKAPKLLIYDMSNLASGVPSRFSGSGSGTDFTLTISSLQPEDFATYYCMQWSGYPYTFGQGTKVEIK
notes: see m39
B19: anti-IL-6 Fab, heavy chain F27P (Fab, V domains shown)
VH: EVQLVESGGGLVQPGGSLRLSCAASGPTFSPFAMSWVRQAPGKGLEWVAKISPGGSWTYYSDTVTGRFTFSLDTSKSTAYLQMNSLRAEDTAVYYCARQLWGYYALDIWGQGTLVTVSS
VL: DIQLTQSPSSLSASVGDRVTITCSASISVSYMYWYQQKPGKAPKLLIYDMSNLASGVPSRFSGSGSGTDFTLTISSLQPEDFATYYCMQWSGYPYTFGQGTKVEIK
notes: see m39
B20: anti-IL-6 Fab, heavy chain D62Q (Fab, V domains shown)
VH: EVQLVESGGGLVQPGGSLRLSCAASGFTFSPFAMSWVRQAPGKGLEWVAKISPGGSWTYYSQTVTGRFTFSLDTSKSTAYLQMNSLRAEDTAVYYCARQLWGYYALDIWGQGTLVTVSS
VL: DIQLTQSPSSLSASVGDRVTITCSASISVSYMYWYQQKPGKAPKLLIYDMSNLASGVPSRFSGSGSGTDFTLTISSLQPEDFATYYCMQWSGYPYTFGQGTKVEIK
notes: see m39
B21: anti-IL-6 Fab, heavy chain L106F (Fab, V domains shown)
VH: EVQLVESGGGLVQPGGSLRLSCAASGFTFSPFAMSWVRQAPGKGLEWVAKISPGGSWTYYSDTVTGRFTFSLDTSKSTAYLQMNSLRAEDTAVYYCARQLWGYYAFDIWGQGTLVTVSS
VL: DIQLTQSPSSLSASVGDRVTITCSASISVSYMYWYQQKPGKAPKLLIYDMSNLASGVPSRFSGSGSGTDFTLTISSLQPEDFATYYCMQWSGYPYTFGQGTKVEIK
notes: see m39

The target of the test is recombinant human IL-6 (human, UniProt P05231 30-212). Description: SPR, IL-6 on CM5 chip, Fab lysate, 25 C. How it is done: Three ranges of antigen density (100-150 RU, 300-400 RU, 400-600 RU) were obtained by using variable flow times for each chip channel, later blocked with ethanolamine. Supernatants of the 96-well filtered culture lysates were injected at 50 μL/min for 120 seconds. Fitting of dissociation curves (300 seconds) to single exponential decay curve was used for the determination of dissociation rates (koff). Chip surfaces were regenerated with 10 mM Glycine pH 1.7 solution injected at 50 μL/min during 60 seconds after every cycle of sample binding and dissociation.
recombinant human IL-6, sequence (P05231 30-212 limits assumed): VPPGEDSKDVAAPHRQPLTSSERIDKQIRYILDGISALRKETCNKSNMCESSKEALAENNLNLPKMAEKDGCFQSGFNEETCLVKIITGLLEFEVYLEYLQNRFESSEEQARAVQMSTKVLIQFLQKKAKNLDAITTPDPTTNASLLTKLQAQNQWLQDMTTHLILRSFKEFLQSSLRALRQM
With B1, the koff was determined as 0.0054 s⁻¹. With B2 the figure was 0.00375 s⁻¹; with B3, 0.00393 s⁻¹; with B4, 0.00575 s⁻¹. With B5 the figure was 0.00405 s⁻¹; with B6, 0.00607 s⁻¹. On to B7, for which the koff amounted to 0.00394 s⁻¹. With B8 the figure was 0.00401 s⁻¹. With B9 the figure was 0.0048 s⁻¹. Under B10 stands 0.00524 s⁻¹; under B11, 0.00397 s⁻¹; under B12, 0.0034 s⁻¹. For B13, the koff amounted to 0.00315 s⁻¹. With B14 the figure was 0.00381 s⁻¹; with B15, 0.00511 s⁻¹; with B16, 0.00541 s⁻¹. As for B17, the dissociation rate constant (koff) amounted to 0.00505 s⁻¹.

In the case of B18, the koff is 0.00525 s⁻¹. Turning to B19, the koff turned out to be 0.00418 s⁻¹. As for B20, the koff is 0.00434 s⁻¹.

As to B21, the koff turned out to be 0.00601 s⁻¹.

For the origin of these results see US20240209076A1 (KODIAK SCIENCES, published 2024).
